As a reminder, the stoichiometry N is a count of units in the complex or per binding partner.

The text below walks through data of article PMC3747075.

The experiment addresses human DNM1L GTPase-GED (GG) fusion protein (human) (UniProt O00429). In words: SEC; 60 µM protein incubated 30 min at 37°C with 2 mM GDP or GTP, 20 mM NaF and 2 mM AlCl3 (transition state mimic GDP/AlF4-); 20 mM Tris/HCl pH 8.0, 150 mM NaCl, 2 mM EGTA, 4 mM MgCl2, 1 mM DTT; Superdex S 75 HR 10/300; dimer at 9.5 ml, monomer at 11 ml. On the technique in general: In gel filtration, larger molecules generally elute earlier.

For “human DNM1L GTPase-GED (GG) fusion protein (from UniProt O00429 1-325) (domain or fragment)”, the stoichiometry N stood at 2.
